# Measured values as given in paper PMC4866497.
# Like-named read-outs stand apart in the source and are kept apart here.
# Legend:
# [1] = target: MetMab full heavy chain with K409D K392D, with MetMab light chain; experiment: SEC
# [2] = test system: MetMab full heavy chain with E357D S364R Y407A, with MetMab light chain; experiment: SEC
# [3] = test system: MetMab full heavy chain with E356G E357D S364Q Y407A, with MetMab light chain; experiment: SEC
# [4] = test system: MetMab full heavy chain with E357D S364R Y407A, with MetMab light chain; experiment: SEC; remark: listed apart in the source
# [5] = test system: MetMab full heavy chain with E356G E357D S364Q Y407A, with MetMab light chain; experiment: SEC; remark: listed apart in the source
# [6] = target: EGFR domain 3 - Fc, wild-type CH3; experiment: FRET or BRET
# [7] = test system: EGFR domain 3 - Fc with T366W; experiment: FRET or BRET
# [8] = test system: EGFR domain 3 - Fc with K409D K392D; experiment: FRET or BRET
# [9] = test system: MetMab full heavy chain with E357D S364Q Y407A, with MetMab light chain; experiment: SEC
# [10] = test system: MetMab full heavy chain with E357D S364Q Y407A, with MetMab light chain; experiment: SEC; remark: listed apart in the source
# [11] = test system: MetMab full heavy chain with D399K E356K, with MetMab light chain; experiment: SEC
# [12] = test system: MetMab full heavy chain with D399K E356K, with MetMab light chain; experiment: SEC; remark: listed apart in the source
# [13] = test system: EGFR domain 3 - Fc with Y349S K370Y T366M K409V; experiment: FRET or BRET
# IgG1 Fc, wild-type CH3 = experiment: SEC
# [14] = target: MetMab full heavy chain with T366V K409V, with MetMab light chain; experiment: SEC
# [15] = target: MetMab full heavy chain with T366V K409V, with MetMab light chain; experiment: SEC; remark: listed apart in the source
# [16] = test system: EGFR domain 3 - Fc with Y349S K370Y T366V K409V; experiment: FRET or BRET
# [17] = test system: MetMab full heavy chain with wild-type CH3, with MetMab light chain [IgG part: P01857]; experiment: SEC
# [18] = test system: MetMab full heavy chain with wild-type CH3, with MetMab light chain [IgG part: P01857]; experiment: SEC; remark: listed apart in the source
# [19] = target: VEGFR1 domain 3 - Fc, wild-type CH3; experiment: FRET or BRET
# [20] = test system: MetMab full heavy chain with Y349S K370Y T366M K409V, with MetMab light chain; experiment: SEC
# [21] = test system: MetMab full heavy chain with Y349S K370Y T366M K409V, with MetMab light chain; experiment: SEC; remark: listed apart in the source
# [22] = test system: MetMab full heavy chain with T366W, with MetMab light chain; experiment: SEC
# [23] = test system: MetMab full heavy chain with T366W, with MetMab light chain; experiment: SEC; remark: listed apart in the source
# [24] = test system: MetMab full heavy chain with K409D K392D, with MetMab light chain; experiment: SEC; remark: listed apart in the source
# [25] = target: MetMab full heavy chain with T350V T366L K392L T394W, with MetMab light chain; experiment: SEC
# [26] = target: MetMab full heavy chain with T350V L351Y F405A Y407V, with MetMab light chain; experiment: SEC
# [27] = test system: MetMab full heavy chain with T366S L358V Y407A, with MetMab light chain; experiment: SEC
# [28] = test system: MetMab full heavy chain with T366S L358V Y407A, with MetMab light chain; experiment: SEC; remark: listed apart in the source
# [29] = test system: MetMab full heavy chain with Y349S K370Y T366V K409V, with MetMab light chain; experiment: SEC
# [30] = test system: MetMab full heavy chain with Y349S K370Y T366V K409V, with MetMab light chain; experiment: SEC; remark: listed apart in the source
# [31] = target: MetMab full heavy chain with wild-type CH3, with MetMab light chain [IgG part: P01857]; experiment: SEC; remark: listed apart in the source
substance,measurement,setting,value
"MetMab full heavy chain with K409D K392D, with MetMab light chain (complex)",% AA homodimer (co-expressed with m19),[1],19.9%
IgG1 Fc with Y349S K370Y T366M K409V,% AB heterodimer,[2],85.5%
same,% AB heterodimer,[3],94.2%
same,% AB heterodimer,[4],29.9%
same,% AB heterodimer,[5],31.8%
"EGFR domain 3 - Fc, wild-type CH3 (Fc fusion)",% AA homodimer (co-expressed with m42),[6],24.2%
VEGFR1 domain 3 - Fc with T366S L358V Y407A,% AB heterodimer,[7],96.2%
VEGFR1 domain 3 - Fc with D399K E356K,% AB heterodimer,[8],96.2%
IgG1 Fc with Y349S K370Y T366V K409V,% AB heterodimer,[9],92.5%
same,% AB heterodimer,[10],4.7%
IgG1 Fc with K409D K392D,% AB heterodimer,[11],93.6%
same,% AB heterodimer,[12],29.4%
VEGFR1 domain 3 - Fc with E356G E357D S364Q Y407A,% AB heterodimer,[13],93.9%
"IgG1 Fc, wild-type CH3 (domain or fragment)",% BB homodimer (co-expressed with m1),"IgG1 Fc, wild-type CH3",15.9%
"VEGFR1 domain 3 - Fc, wild-type CH3",% AB heterodimer,[6],61.2%
"MetMab full heavy chain with T366V K409V, with MetMab light chain (complex)",% AA homodimer (co-expressed with m24),[14],4.1%
same,% AA long dimer (co-expressed with m24),[14],3.8%
same,% AA homodimer (co-expressed with m24),[15],28.6%
same,% AA long dimer (co-expressed with m24),[15],24.1%
VEGFR1 domain 3 - Fc with E357D S364Q Y407A,% AB heterodimer,[16],93.3%
"IgG1 Fc, wild-type CH3",% AB heterodimer,[17],51.3%
same,% AB heterodimer,[18],27.4%
"VEGFR1 domain 3 - Fc, wild-type CH3 (Fc fusion)",% BB homodimer (co-expressed with m35),[19],14.6%
IgG1 Fc with E357D S364R Y407A,% AB heterodimer,[20],83.5%
same,% AB heterodimer,[21],34.7%
IgG1 Fc with T366S L358V Y407A,% AB heterodimer,[22],92.4%
same,% AB heterodimer,[23],35%
IgG1 Fc with D399K E356K,% AB heterodimer,[24],91.7%
same,% AB heterodimer,[1],37.5%
"MetMab full heavy chain with T350V T366L K392L T394W, with MetMab light chain (complex)",% AA homodimer (co-expressed with m23),[25],5.1%
"MetMab full heavy chain with T366W, with MetMab light chain (complex)",% AA homodimer (co-expressed with m21),[23],15.7%
"MetMab full heavy chain with T350V L351Y F405A Y407V, with MetMab light chain (complex)",% AA homodimer (co-expressed with m22),[26],9%
IgG1 Fc with T366W,% AB heterodimer,[27],94.1%
same,% AB heterodimer,[28],33.1%
IgG1 Fc with E357D S364Q Y407A,% AB heterodimer,[29],84.9%
same,% AB heterodimer,[30],11.7%
"MetMab full heavy chain with wild-type CH3, with MetMab light chain (from UniProt P01857 1-399) (complex)",% AA homodimer (co-expressed with m17),[31],31.3%
same,% AA homodimer (co-expressed with m17),[18],65%
IgG1 Fc with E356G E357D S364Q Y407A,% AB heterodimer,[20],83.8%
same,% AB heterodimer,[21],23.6%
"MetMab full heavy chain with D399K E356K, with MetMab light chain (complex)",% AA homodimer (co-expressed with m18),[12],11.3%
